In the assay the target is T1, DPP-IV as immobilized on the CM5 surface plasmon resonance sensor (Biacore) (human, UniProt P27487 31-766).
T1 construct: Same recombinant sDPP-IV polypeptide as m1; Amine-coupled, about 10 000 RU; in one flow cell cross-linked with carbodiimide/N-hydroxysuccinimide; also called sDPP-IV
In words: SPR (Biacore), DPP-IV immobilized on CM5 sensor. The procedure: The organic adlayer on this sensor type consists of carboxymethylated dextran (MW≈100 kDA). […] The surfaces of two flow cells were modified with protein. […] Hepes buffer (0.01 M Hepes, pH 7.4, 0.15 M NaCl, 3 mM EDTA, 0.005% polysorbate 20 (v/v)) was used as the running buffer. […] The final inhibitor solution contained less than 0.1% DMSO. Binding experiments were carried out by contacting the immobilized protein surfaces with inhibitor solutions of varying concentrations at a flow rate of 10 μl/min or 30 μl/min. After each contact with inhibitor, the protein surfaces were regenerated by extensively washing with running buffer.

T1 sequence (P27487 31-766 limits assumed): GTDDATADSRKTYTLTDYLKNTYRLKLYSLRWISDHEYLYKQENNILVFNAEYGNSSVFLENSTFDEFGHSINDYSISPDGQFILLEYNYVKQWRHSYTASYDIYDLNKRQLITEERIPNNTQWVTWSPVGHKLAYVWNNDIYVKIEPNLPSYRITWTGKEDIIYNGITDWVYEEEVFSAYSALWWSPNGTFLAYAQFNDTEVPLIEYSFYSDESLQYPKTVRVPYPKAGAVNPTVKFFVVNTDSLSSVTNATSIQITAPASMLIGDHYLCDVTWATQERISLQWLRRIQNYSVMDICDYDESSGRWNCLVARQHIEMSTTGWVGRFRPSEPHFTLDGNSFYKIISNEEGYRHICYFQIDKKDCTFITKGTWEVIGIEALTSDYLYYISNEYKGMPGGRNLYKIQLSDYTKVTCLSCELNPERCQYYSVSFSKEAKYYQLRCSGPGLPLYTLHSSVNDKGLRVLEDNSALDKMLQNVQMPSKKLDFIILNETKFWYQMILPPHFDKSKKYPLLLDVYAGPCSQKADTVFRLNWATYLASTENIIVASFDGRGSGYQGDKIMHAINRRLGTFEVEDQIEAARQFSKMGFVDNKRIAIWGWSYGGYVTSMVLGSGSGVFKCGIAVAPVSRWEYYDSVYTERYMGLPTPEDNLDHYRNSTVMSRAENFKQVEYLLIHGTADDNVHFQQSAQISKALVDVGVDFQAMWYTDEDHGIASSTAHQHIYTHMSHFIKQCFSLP

B1: adenosine deaminase (ADA; Sigma Type IV, from calf intestinal mucosa) (enzyme, bovine, UniProt P56658 2-357, looked up)
chain: AQTPAFNKPKVELHVHLDGAIKPETILYYGRKRGIALPADTPEELQNIIGMDKPLSLPEFLAKFDYYMPAIAGCREAVKRIAYEFVEMKAKDGVVYVEVRYSPHLLANSKVEPIPWNQAEGDLTPDEVVSLVNQGLQEGERDFGVKVRSILCCMRHQPSWSSEVVELCKKYREQTVVAIDLAGDETIEGSSLFPGHVKAYAEAVKSGVHRTVHAGEVGSANVVKEAVDTLKTERLGHGYHTLEDATLYNRLRQENMHFEVCPWSSYLTGAWKPDTEHPVVRFKNDQVNYSLNTDDPLIFKSTLDTDYQMTKNEMGFTEEEFKRLNINAAKSSFLPEDEKKELLDLLYKAYGMPSPA
notes: Bought protein purified from tissue; also called ADA from bovine
B1 registered a Kd of 3.15 nM, an off-rate constant (koff) of 8.75e-05 s⁻¹ and an association rate constant (kon) of 29800 M⁻¹ s⁻¹.

Values taken from patent publication US20070100561A1 (published 2007).
